Changes are numbered by the printed parent chain. Where “and” joins values, the source holds several entries; their conditions need not be identical. Equal values may be shown once. Read-outs that look alike come from different tables or passages of the source.
B1: VHH 10E1 (VHH)
VHH: EVQLVESGGGLVQAGESLRLSCAASGSIASIKTMAWYRQAPGSQRELVAAINYIKEIYYADSVKGRFTISRDNAKTTVYLQMNSLRPEDTAVYYCVVDVTKEDYWYWGQGTQVTVSS
notes: also called 10E01
B2: VHH 12A09: affinity matured variant of VHH 2A1, SEQ ID NO: 32 (protein)
VHH: B1 VHH with A49T, N52A, Y53S, I54D, K55N, E56R, I57K
B3: 2A1-Hinge: VHH 2A1 with human IgG1 hinge region downstream, dimeric, SEQ ID NO: 114 (protein)
chain: EVQLVESGGGLVQAGESLRLSCAASGSIASINAMGWYRQAPGSQRELVAAISGGGDTYYADSVKGRFTISRDNAKTTVYLQMNSLRPEDTAVYYCVVDLYGSDYWDWGQGTQVTVSSDKTHTCPPCPAPEL
modifications: dimeric
B4: VHH 2A1 (VHH)
VHH: EVQLVESGGGLVQAGESLRLSCAASGSIASINAMGWYRQAPGSQRELVAAISGGGDTYYADSVKGRFTISRDNAKTTVYLQMNSLRPEDTAVYYCVVDLYGSDYWDWGQGTQVTVSS
notes: Monomeric llama VHH; also called VHH #2A01; monomeric 2A1
B5: VHH 6B10: affinity matured variant of VHH 2A1, SEQ ID NO: 28 (protein)
VHH: B4 VHH with L99T, Y100H, G101R, S102G, D103V, D106Y
B6: VHH 9A7 (VHH)
VHH: EVQLVESGGGLVQAGESLRLSCAASGSIASINSMGWYRQAPGSQRELVAAISDRSEKYYADSVKGRFTISRDNAKTTVYLQMNSLRPEDTAVYYCVVDHHHSDWWTWGQGTQVTVSS
notes: also called 9A07
B7: VHH 11E11 (VHH)
VHH: EVQLVESGGGLVQAGESLRLSCAASGSIASINSMAWYRQAPGSQRELVAAISNAREVYYADSVKGRFTISRDNAKTTVYLQMNSLRPEDTAVYYCVVDVYFQEYWYWGQGTQVTVSS
B8: VHH 5A3 (VHH)
VHH: B4 VHH with A33S, S52N, G53E, G54K, G55L, D56L, T57I
notes: also called 5A03
B9: VHH 11G11 (VHH)
VHH: B1 VHH with K32N, Y53S, K55S, E56R, I57T
B10: VHH 9B3 (VHH)
VHH: B7 VHH with N32R, S33T, N53S, A54G, V99M, F101W, E103D, Y106W
notes: also called 9B03

Tests used:
[1] = target: T1, soluble CD28 (sCD28) from SEB stimulated PBMC (Homo sapiens, UniProt P10747); assay type: cell-based
T1 construct: PBMCs were isolated from fresh blood samples of healthy donors; endogenous in cells; host or cells: human PBMCs from healthy donors, SEB-stimulated

[2] = target: human CD28 on the cell surface (membranal CD28) (human) (UniProt P10747); experiment: flow cytometry on human CD3 cells, 300 nM, anti-human IgG VHH Alexa Fluor 647
[3] = target: human CD28 on the cell surface (membranal CD28) (human) (UniProt P10747); experiment: as above; remark: listed apart in the source
[4] = target: T2, human CD28-Fc chimera (R&D, Cat. No. 342-CD) (human, UniProt P10747 19-152); experiment: SPR (Biacore), CD28-Fc immobilized on CM5 chip, VHH as analyte, multi-cycle kinetics, 1:1 model
T2 construct: Bought reagent; also called recombinant human CD28-Fc fusion protein; recombinant CD28 fused to an Fc backbone; Fc part of the bought chimera not given

CD28-Fc = target: T3, CD28-Fc (Homo sapiens, UniProt P10747); experiment: Biacore multi-cycle kinetics on immobilized CD28-Fc; assay type: binding; details: Table 3, monomeric VHH clones; for ka: affinity constants to CD28-Fc
T3 construct: Fc
Procedure: Biacore—Affinity clones derived from VHH #2A01 affinity maturation libraries was determined using CD28-Fc immobilized on a CM5 Series S sensor chip. Multi-cycle kinetics measurements were done using 5 step dilutions of the analytes (VHH clones) from 200 nM down to 12.5 nM. Kinetic parameters and affinity values were calculated using the 1:1 binding model in Biacore T 200 E valuation software 3.1 by introducing a double (blank channel and blank sample) subtraction.

isolated CD3 T cells = experiment: T cell stimulation with HEK/CD80/scOKT3 artificial antigen presenting cells (aAPC-CD80), IL-2 secretion; assay type: cell-based, human; details: various concentrations, FIG. 13A-13F, 17A-17F
Procedure: (§1) Cytokines ELISA—Commercial ELISA kits were used for quantitation of the amount of human interferon-gamma (Biolegend, Cat. No. 430103), human interleukin 2 (Biolegend, Cat. No. 431802) and human CD28 (R&D system, Cat. No. DY342). Cell Proliferation and viability (MTT assay) was conducted to assure validity of results and performed according to manufacturer instructions (Roche, Cat. No. 11465007001).
T cells stimulation with HEK/CD80/scOKT3 artificial antigen presenting cells (aAPC-CD80)—1×10^5 isolated CD3 T cells (from healthy donors) were stimulated with 0.5×10^4 mitomycin treated aAPC-CD80 (HEK293 cells stably transfected with CD80 and scOKT3-CD14 chimera plasmids) for 24-72 hr at 37° C. Treatments of VHH targeting CD28 or controls were added at the indicated concentration in soluble form. When stated, VHH #3C04 (raised against human HER2) was used as an “irrelevant control” and VHH #12B09 was used as a “positive control” for a nanobody with CD28 antagonist effect. Assays were conducted in complete RPMI-1640 media supplemented with 10% FCS and pen/strep mixture.

[5] = target: T2, human CD28-Fc chimera (R&D, Cat. No. …); experiment: ELISA: serial dilution of the agent on recombinant human CD28-Fc fusion protein, OD read
[6] = tested on: isolated T cells mixed with mature dendritic cells; experiment: Allogeneic mixed lymphocyte reaction (MLR), cytokine secretion; assay type: cell-based, human; details: monomeric affinity matured VHHs; especially at high concentrations; FIG. 2
Procedure: as §1
Dendritic cell differentiation—Monocytes were cultured at a density of 1×10^6/mL in RPMI medium with growth factors that was refreshed at day 3 and at day 6. […] When needed the iDCs were further differentiated into mature dendritic cells by addition of 100 ng/mL LPS (Sigma, Cat. No. L4391) and 20 ng/mL interferon-gamma (R&D systems, Cat. No. 285-IF) for 48 hrs. The generated cell populations were tested for the indicated phenotypes by FACS analysis of relevant markers and by analysis of secretion of characteristic cytokines.
Allogeneic Mixed Lymphocyte Reaction—0.1×10^6 T cells were mixed with […] dendritic cells from different donor for 24-96 hours at 37° C. with/without the indicated concentration of treatments. Assays were conducted in complete RPMI-1640 media supplemented with 10% FCS and pen/strep mixture. […]

Row | Molecule | Kd [4] | koff [4] | kon [4] | kd (CD28-Fc; CD28-Fc) | ka (CD28-Fc) | other results
1 | CC#CCOc1ccc(S(=O)(=O)N2CCSC(C)(C)[C@@H]2C(=O)NO)cc1 [TMI, reference compound] | – | – | – | – | – | sCD28 levels / inhibition of sCD28 production [1]: greatly reduced sCD28 levels
2 | Isotype hIgG4 (antibody) | – | – | – | – | – | MFI [2]: 116 MFI; MFI [3]: 71.9 MFI
3 | B1 | 0.0639 nM | 2.84e-06 s⁻¹ | 44400 M⁻¹ s⁻¹ | 2.84e-06 s⁻¹ | 44400 M⁻¹ s⁻¹ | –
4 | B2 | – | – | – | 3.43e-07 s⁻¹ | 83400 M⁻¹ s⁻¹ | Kd (CD28-Fc; CD28-Fc): 0.0041 nM
5 | B3 | – | – | – | – | – | sCD28 levels / inhibition of sCD28 production [1]: did inhibit sCD28 production, but only at levels that were comparable to the 2A1 monomer; IL-2 secretion, antagonistic effect (isolated CD3 T cells): no effect on IL-2 secretion
6 | B4 | – | – | – | – | – | EC50 (read off the curve) [5]: ~40 nM
7 | B5 | – | – | – | – | – | blocking of CD28 shedding compared to the parental VHH [1]: superior to the parental VHH; proinflammatory cytokine (IFN gamma) secretion in MLR, antagonistic effect [6]: robust antagonistic effect
8 | B6 | 0.19 nM | 9.78e-06 s⁻¹ | 51500 M⁻¹ s⁻¹ | 9.78e-06 s⁻¹ | 51500 M⁻¹ s⁻¹ | –
9 | B7 | 0.352 nM | 1.64e-05 s⁻¹ | 46600 M⁻¹ s⁻¹ | 1.64e-05 s⁻¹ | 46600 M⁻¹ s⁻¹ | –
10 | B8 | 1.12 nM | 3.78e-05 s⁻¹ | 33800 M⁻¹ s⁻¹ | 3.78e-05 s⁻¹ | 33800 M⁻¹ s⁻¹ | blocking of CD28 shedding compared to the parental VHH [1]: superior to the parental VHH; proinflammatory cytokine (IFN gamma) secretion in MLR, antagonistic effect [6]: robust antagonistic effect
11 | B9 | 0.12 nM and 0.121 nM | 5.77e-06 s⁻¹ | 47800 M⁻¹ s⁻¹ | 5.77e-06 s⁻¹ | 47800 M⁻¹ s⁻¹ | –
12 | B10 | 0.000642 nM | 7.17e-08 s⁻¹ | 112000 M⁻¹ s⁻¹ | 7.17e-08 s⁻¹ | 112000 M⁻¹ s⁻¹ | –

Reference: patent US20240279335A1, “CD28 SHEDDING BLOCKING AGENTS” (BIOND BIOLOGICS LTD., priority 2021, published 2024)
